Where no end group is shown, it is not given here. The star is where a group is joined. C16 diacid = O=C(O)CCCCCCCCCCCCCCC(=O)*
B1: AT504 (peptide)
peptide: SGTFISDYSIAMDRIKQQDFVNWLLAQR
HELM: PEPTIDE1{S.G.T.F.I.S.D.Y.S.I.A.M.D.R.I.K.Q.Q.D.F.V.N.W.L.L.A.Q.R.[am]}|PEPTIDE2{[O=C(O)CCCCCCCCCCCCCCC(=O)[*:2]].[gGlu]}$PEPTIDE1,PEPTIDE2,16:R3-2:R2$$$V2.0; N-terminus assumed
SMILES: CC[C@H](C)[C@H](NC(=O)[C@H](CO)NC(=O)[C@H](Cc1ccc(O)cc1)NC(=O)[C@H](CC(=O)O)NC(=O)[C@H](CO)NC(=O)[C@@H](NC(=O)[C@H](Cc1ccccc1)NC(=O)[C@@H](NC(=O)CNC(=O)[C@@H](N)CO)[C@@H](C)O)[C@@H](C)CC)C(=O)N[C@@H](C)C(=O)N[C@@H](CCSC)C(=O)N[C@@H](CC(=O)O)C(=O)N[C@@H](CCCNC(=N)N)C(=O)N[C@H](C(=O)N[C@@H](CCCCNC(=O)CC[C@H](NC(=O)CCCCCCCCCCCCCCC(=O)O)C(=O)O)C(=O)N[C@@H](CCC(N)=O)C(=O)N[C@@H](CCC(N)=O)C(=O)N[C@@H](CC(=O)O)C(=O)N[C@@H](Cc1ccccc1)C(=O)N[C@H](C(=O)N[C@@H](CC(N)=O)C(=O)N[C@@H](Cc1c[nH]c2ccccc12)C(=O)N[C@@H](CC(C)C)C(=O)N[C@@H](CC(C)C)C(=O)N[C@@H](C)C(=O)N[C@@H](CCC(N)=O)C(=O)N[C@@H](CCCNC(=N)N)C(N)=O)C(C)C)[C@@H](C)CC
B2: AT356 (peptide)
peptide: DYSIAMDKIK(C16 diacid)QQDFVNWLLAQK-NH2
modifications: N-terminus assumed
SMILES: CC[C@H](C)[C@H](NC(=O)[C@H](CO)NC(=O)[C@H](Cc1ccc(O)cc1)NC(=O)[C@@H](N)CC(=O)O)C(=O)N[C@@H](C)C(=O)N[C@@H](CCSC)C(=O)N[C@@H](CC(=O)O)C(=O)N[C@@H](CCCCN)C(=O)N[C@H](C(=O)N[C@@H](CCCCNC(=O)CCCCCCCCCCCCCCC(=O)O)C(=O)N[C@@H](CCC(N)=O)C(=O)N[C@@H](CCC(N)=O)C(=O)N[C@@H](CC(=O)O)C(=O)N[C@@H](Cc1ccccc1)C(=O)N[C@H](C(=O)N[C@@H](CC(N)=O)C(=O)N[C@@H](Cc1c[nH]c2ccccc12)C(=O)N[C@@H](CC(C)C)C(=O)N[C@@H](CC(C)C)C(=O)N[C@@H](C)C(=O)N[C@@H](CCC(N)=O)C(=O)N[C@@H](CCCCN)C(N)=O)C(C)C)[C@@H](C)CC
B3: AT496 (peptide)
peptide: GGTFISDYSIAMDRIK(C16 diacid)QQDFVNWLLAQR-NH2
modifications: N-terminus assumed
SMILES: CC[C@H](C)[C@H](NC(=O)[C@H](CO)NC(=O)[C@H](Cc1ccc(O)cc1)NC(=O)[C@H](CC(=O)O)NC(=O)[C@H](CO)NC(=O)[C@@H](NC(=O)[C@H](Cc1ccccc1)NC(=O)[C@@H](NC(=O)CNC(=O)CN)[C@@H](C)O)[C@@H](C)CC)C(=O)N[C@@H](C)C(=O)N[C@@H](CCSC)C(=O)N[C@@H](CC(=O)O)C(=O)N[C@@H](CCCNC(=N)N)C(=O)N[C@H](C(=O)N[C@@H](CCCCNC(=O)CCCCCCCCCCCCCCC(=O)O)C(=O)N[C@@H](CCC(N)=O)C(=O)N[C@@H](CCC(N)=O)C(=O)N[C@@H](CC(=O)O)C(=O)N[C@@H](Cc1ccccc1)C(=O)N[C@H](C(=O)N[C@@H](CC(N)=O)C(=O)N[C@@H](Cc1c[nH]c2ccccc12)C(=O)N[C@@H](CC(C)C)C(=O)N[C@@H](CC(C)C)C(=O)N[C@@H](C)C(=O)N[C@@H](CCC(N)=O)C(=O)N[C@@H](CCCNC(=N)N)C(N)=O)C(C)C)[C@@H](C)CC
B4: AT498 (peptide)
peptide: SGTFISDYSIAMDRIK(C16 diacid)QQDFVNWLLAQR-NH2
modifications: N-terminus assumed
SMILES: CC[C@H](C)[C@H](NC(=O)[C@H](CO)NC(=O)[C@H](Cc1ccc(O)cc1)NC(=O)[C@H](CC(=O)O)NC(=O)[C@H](CO)NC(=O)[C@@H](NC(=O)[C@H](Cc1ccccc1)NC(=O)[C@@H](NC(=O)CNC(=O)[C@@H](N)CO)[C@@H](C)O)[C@@H](C)CC)C(=O)N[C@@H](C)C(=O)N[C@@H](CCSC)C(=O)N[C@@H](CC(=O)O)C(=O)N[C@@H](CCCNC(=N)N)C(=O)N[C@H](C(=O)N[C@@H](CCCCNC(=O)CCCCCCCCCCCCCCC(=O)O)C(=O)N[C@@H](CCC(N)=O)C(=O)N[C@@H](CCC(N)=O)C(=O)N[C@@H](CC(=O)O)C(=O)N[C@@H](Cc1ccccc1)C(=O)N[C@H](C(=O)N[C@@H](CC(N)=O)C(=O)N[C@@H](Cc1c[nH]c2ccccc12)C(=O)N[C@@H](CC(C)C)C(=O)N[C@@H](CC(C)C)C(=O)N[C@@H](C)C(=O)N[C@@H](CCC(N)=O)C(=O)N[C@@H](CCCNC(=N)N)C(N)=O)C(C)C)[C@@H](C)CC
B5: AT502 (peptide)
peptide: GGTFISDYSIAMDRIKQQDFVNWLLAQR
HELM: PEPTIDE1{G.G.T.F.I.S.D.Y.S.I.A.M.D.R.I.K.Q.Q.D.F.V.N.W.L.L.A.Q.R.[am]}|PEPTIDE2{[O=C(O)CCCCCCCCCCCCCCC(=O)[*:2]].[gGlu]}$PEPTIDE1,PEPTIDE2,16:R3-2:R2$$$V2.0; N-terminus assumed
SMILES: CC[C@H](C)[C@H](NC(=O)[C@H](CO)NC(=O)[C@H](Cc1ccc(O)cc1)NC(=O)[C@H](CC(=O)O)NC(=O)[C@H](CO)NC(=O)[C@@H](NC(=O)[C@H](Cc1ccccc1)NC(=O)[C@@H](NC(=O)CNC(=O)CN)[C@@H](C)O)[C@@H](C)CC)C(=O)N[C@@H](C)C(=O)N[C@@H](CCSC)C(=O)N[C@@H](CC(=O)O)C(=O)N[C@@H](CCCNC(=N)N)C(=O)N[C@H](C(=O)N[C@@H](CCCCNC(=O)CC[C@H](NC(=O)CCCCCCCCCCCCCCC(=O)O)C(=O)O)C(=O)N[C@@H](CCC(N)=O)C(=O)N[C@@H](CCC(N)=O)C(=O)N[C@@H](CC(=O)O)C(=O)N[C@@H](Cc1ccccc1)C(=O)N[C@H](C(=O)N[C@@H](CC(N)=O)C(=O)N[C@@H](Cc1c[nH]c2ccccc12)C(=O)N[C@@H](CC(C)C)C(=O)N[C@@H](CC(C)C)C(=O)N[C@@H](C)C(=O)N[C@@H](CCC(N)=O)C(=O)N[C@@H](CCCNC(=N)N)C(N)=O)C(C)C)[C@@H](C)CC
B6: AT500 (peptide)
peptide: PGTFISDYSIAMDRIK(C16 diacid)QQDFVNWLLAQR-NH2
modifications: N-terminus assumed
SMILES: CC[C@H](C)[C@H](NC(=O)[C@H](CO)NC(=O)[C@H](Cc1ccc(O)cc1)NC(=O)[C@H](CC(=O)O)NC(=O)[C@H](CO)NC(=O)[C@@H](NC(=O)[C@H](Cc1ccccc1)NC(=O)[C@@H](NC(=O)CNC(=O)[C@@H]1CCCN1)[C@@H](C)O)[C@@H](C)CC)C(=O)N[C@@H](C)C(=O)N[C@@H](CCSC)C(=O)N[C@@H](CC(=O)O)C(=O)N[C@@H](CCCNC(=N)N)C(=O)N[C@H](C(=O)N[C@@H](CCCCNC(=O)CCCCCCCCCCCCCCC(=O)O)C(=O)N[C@@H](CCC(N)=O)C(=O)N[C@@H](CCC(N)=O)C(=O)N[C@@H](CC(=O)O)C(=O)N[C@@H](Cc1ccccc1)C(=O)N[C@H](C(=O)N[C@@H](CC(N)=O)C(=O)N[C@@H](Cc1c[nH]c2ccccc12)C(=O)N[C@@H](CC(C)C)C(=O)N[C@@H](CC(C)C)C(=O)N[C@@H](C)C(=O)N[C@@H](CCC(N)=O)C(=O)N[C@@H](CCCNC(=N)N)C(N)=O)C(C)C)[C@@H](C)CC

Molecular target: T1, human GIP receptor (human, UniProt P48546 22-466)
T1 sequence (looked up): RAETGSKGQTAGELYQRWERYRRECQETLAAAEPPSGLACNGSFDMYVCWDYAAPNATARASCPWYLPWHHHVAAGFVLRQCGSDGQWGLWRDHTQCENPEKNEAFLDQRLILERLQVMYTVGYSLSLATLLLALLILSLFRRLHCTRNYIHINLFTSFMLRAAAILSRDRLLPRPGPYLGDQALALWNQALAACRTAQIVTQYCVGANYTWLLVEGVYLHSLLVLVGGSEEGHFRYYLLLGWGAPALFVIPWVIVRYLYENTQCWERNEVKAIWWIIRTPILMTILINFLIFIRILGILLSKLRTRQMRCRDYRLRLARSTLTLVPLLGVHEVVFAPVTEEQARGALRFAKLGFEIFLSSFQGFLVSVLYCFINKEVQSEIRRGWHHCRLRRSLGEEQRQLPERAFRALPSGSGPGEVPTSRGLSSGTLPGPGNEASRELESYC
Assay: cell-based or functional assay

| Binder | CisBio cAMP agonism % Efficacy [%] | CisBio cAMP antagonism % inhib [%] | CisBio cAMP antagonism IC50 [nM] | CisBio cAMP antagonism pIC50 | DiscoveRx cAMP antagonism % inhib [%] | DiscoveRx cAMP antagonism IC50 [nM] | DiscoveRx cAMP antagonism log IC50 [log M] | DiscoveRx cAMP agonism Emax |
| --- | --- | --- | --- | --- | --- | --- | --- | --- |
| B1 | 0 | 85 | 39.8 | 7.4 | 90 | 21 | -7.7 |  |
| B2 | 0 |  |  |  |  |  |  |  |
| B3 | 0 | 100 | 39.8 | 7.4 | 100 | 12 | -7.9 |  |
| B4 |  |  |  | 7.9 |  |  | -7.7 | 6 |
| B5 | 13 | 65 | 293 | 6.5 | 85 | 52 | -7.3 | 5 |
| B6 | 4 | 77 | 66.8 | 7.2 | 90 | 29 | -7.5 |  |

From patent US20220025010A1 (ANTAG THERAPEUTICS, published 2022)
